Biological target: the molecule itself
Test: SDS-PAGE and Western blot

B1: HA-tagged rat syndecan-4 AAA mutant (serines 44, 65 and 67 mutated to alanine; no glycosaminoglycan chains) (receptor, UniProt P34901 24-202, looked up)
chain: ESIRETEVIDPQDLLEGRYFAGALPDDEDAGGLEQDSDFELAGAGDLDDTEEPRTFPEVISPLVPLDNHIPENAQPGIRVPSEPKELEENEVIPKRVPSDVGDDDVSNKVSMSSTSQGSNIFERTEVLAALIVGGVVGILFAVFLILLLVYRMKKKDEGSYDLGKKPIYKKAPTNEFYA
B1 was tested, and the “stoichiometry N” value was 2.
